Changes are numbered by the printed parent chain.
T1: Recombinant human OX40-His protein (human, UniProt P43489 29-214, limits assumed)
T1 construct: Recombinant antigen protein; also called recombinant human OX-40 protein; human OX-40 protein; not shown: His tag
T1 sequence (looked up): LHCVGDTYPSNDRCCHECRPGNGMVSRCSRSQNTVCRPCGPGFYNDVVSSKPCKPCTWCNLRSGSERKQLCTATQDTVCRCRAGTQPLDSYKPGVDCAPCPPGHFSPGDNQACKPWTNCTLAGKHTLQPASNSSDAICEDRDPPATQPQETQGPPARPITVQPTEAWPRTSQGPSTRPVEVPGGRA

T2: OX40 on a functional cell line overexpressing OX40 (UniProt P43489 29-277, limits assumed)
T2 sequence (looked up): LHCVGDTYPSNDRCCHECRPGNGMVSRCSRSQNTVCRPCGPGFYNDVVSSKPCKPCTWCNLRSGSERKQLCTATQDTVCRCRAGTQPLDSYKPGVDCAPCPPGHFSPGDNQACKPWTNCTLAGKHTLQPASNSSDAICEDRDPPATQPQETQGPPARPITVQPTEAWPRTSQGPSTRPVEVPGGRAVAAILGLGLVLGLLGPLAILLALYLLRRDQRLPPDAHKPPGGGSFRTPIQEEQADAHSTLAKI

T3: Recombinant monkey OX-40 protein (monkey)
T3 chain: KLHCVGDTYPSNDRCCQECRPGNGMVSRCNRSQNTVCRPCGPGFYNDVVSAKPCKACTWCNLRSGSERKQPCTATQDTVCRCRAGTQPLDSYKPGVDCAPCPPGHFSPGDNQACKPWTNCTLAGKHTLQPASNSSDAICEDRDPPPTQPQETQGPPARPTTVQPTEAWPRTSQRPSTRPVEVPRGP

B1: Chimeric antibody (anti-human OX40, recombinant, human IgG1/kappa constant regions) (antibody, V domains shown)
VH: QIQLVQSGPELKKPGETVKISCKASGYTFTDYSMHWVKQAPGKGLKWMGWISTETGEPTYADDFKGRFAFSLETSASTAYLQIKNLKNEDTASYFCARVRPWYLAVWGAGTTVTVSS
VL: DIQMTQTTSSLSASLGDRVTISCRASQDISNYLNWYQQKPDGTVKLLIYYTSRLYSGVPSRFSGSGSGADYSLTVSNLEQEDIATYFCQQANTLPLTFGAGTKLELK
B2: AH02913 humanized anti-human OX40 monoclonal antibody (recombinant human IgG1/kappa) (antibody, V domains shown)
VH: QVQLVQSGPEVKKPGASVKVSCKASGYTFTDYSMHWVKQAPGQGLEWMGWISTETGEPTYADDFKGRVTITLDTSASTAYMELSSLRSEDTAVYFCARVRPWYLAVWGQGTLVTVSS
VL: DIQMTQSPSSLSASVGDRVTITCRASQDISNYLNWYQQKPGKAVKLLIYYTSRLYSGVPSRFSGSGSGTDYTFTISSLQPEDIATYFCQQANTLPLTFGGGTKLEIK
B3: AH02919 humanized anti-human OX40 monoclonal antibody (recombinant human IgG1/kappa) (antibody, V domains shown)
VH: B2 VH with P9A, L72R, M81L, L83I
VL: B2 VL with F73L, F87Y
B4: AH02916 humanized anti-human OX40 monoclonal antibody (recombinant human IgG1/kappa) (antibody, V domains shown)
VH: B2 VH with P9A, F95Y
VL: B2 VL
B5: AH02921 humanized anti-human OX40 monoclonal antibody (recombinant human IgG1/kappa) (antibody, V domains shown)
VH: B2 VH with K38R, V68F, M81L, L83I, A105T
VL: B2 VL with V44P, F73L
B6: AH02923 humanized anti-human OX40 monoclonal antibody (recombinant human IgG1/kappa) (antibody, V domains shown)
VH: B2 VH with P9A, K38R, V68F, I70F, M81L, F95Y
VL: B2 VL with F87Y
B7: Chimeric antibody, as ranked with the prokaryotically expressed antibody products (back-mutation screening) (Fab, V domains shown)
VH: B1 VH
VL: B1 VL

The molecules below were run against T1, Recombinant human OX40-His protein (assay: SPR (Biacore 8K), OX40-HIS coupled to chip, antibody as analyte, 1:1 binding model).
Description: The chip surface was equilibrated with HBS-EP buffer at a flow rate of 10 μl/min for 5 min, and then a 1:1 mixture of “NHS+EDC” was injected at a flow rate of 10 μl/min for 100 sec to activate the chip. The antigen protein (OX40-HIS) diluted in 10 mM sodium acetate buffer was injected for about 180 sec at a flow rate of 10 μl/min for coupling, and finally ethanolamine was injected for 200 sec at a flow rate of 10 μl/min to block the surface.
Three pre-cycles were performed with the HBS-EP buffer as a sample to balance the chip to stabilize the baseline. A low concentration of antibody was injected at a flow rate of 30 μl/min for 200 sec, to allow the antigen to bind to the antibody, and then the buffer was injected at a flow rate of 30 μl/min for 400 sec for dissociation. 10 mM Gly-HCl pH2.0 was injected three times each for 30 sec at a flow rate of 30 μl/min for regeneration, to complete one cycle.
The antibody concentration was changed to carry out the cycle for measurement at a next gradient concentration until all gradient concentrations (2.5 nM, 5 nM, 10 nM, 20 nM, 40 nM, and […]) and the replicate (such as 20 nM) were tested. The experimental data was double subtracted (minus the background values of the control channel and zero concentration), and fitted to the “1:1 binding” model in the Biacore 8K evaluation software. Biacore 8K was used to determine the affinity of the antibody to the OX40-HIS recombinant protein.

| Kd | koff | kon | Molecule |
| --- | --- | --- | --- |
| 2.4 nM | 0.000814 s⁻¹ | 339000 M⁻¹ s⁻¹ | B1 |
| 1.76 nM | 0.00067 s⁻¹ | 381000 M⁻¹ s⁻¹ | B2 |
| 2.09 nM | 0.000776 s⁻¹ | 372000 M⁻¹ s⁻¹ | B3 |
| 2.46 nM | 0.000659 s⁻¹ | 268000 M⁻¹ s⁻¹ | B4 |
| 1.34 nM | 0.000439 s⁻¹ | 327000 M⁻¹ s⁻¹ | B5 |
| 2.15 nM | 0.000616 s⁻¹ | 287000 M⁻¹ s⁻¹ | B6 |

The molecules below were run against T1, Recombinant human OX40-His protein (assay: ELISA, plate coated with recombinant human OX-40 protein, antibody titrated).
Description: Recombinant human OX-40 protein and recombinant monkey OX-40 protein were respectively used to detect the cross-recognition ability of humanized monoclonal antibodies for human/monkey OX-40 protein.
The ELISA plate (Nunc) was coated with 100 μl/well of […] recombinant OX40-His protein in PBS at 4° C. overnight. The plate was washed with PBS-T (0.05% Tween) and blocked with 200 μl/well of PBST containing 1% BSA at 37° C. for 0.5 hr. Then the blocking buffer was discarded, 100 μl of 1000 ng/ml purified antibody was added to the first well, 3-fold serial dilutions were made, and a total of 11 test concentration gradients were given. Then the system was incubated for 1 hr at room temperature. The plate was washed three times with PBST and incubated with 100 μl/well of horseradish peroxidase-conjugated goat anti-human Fab fragment-IgG (Fab-specific) (GenScript) at 37° C. for 0.5 hr. The plate was washed 5 times with PBST, and then a TMB developing solution (GenScript) was added and incubated at room temperature for 15 min in the dark. The reaction was terminated by adding 50 μl of 1 M HCl stop solution (Sigma). The plate was read at 450 nm on a microplate reader.

| EC50 | Molecule |
| --- | --- |
| 0.0138 µg/mL | B1 |
| 0.0161 µg/mL | B2 |
| 0.0143 µg/mL | B3 |
| 0.0131 µg/mL | B4 |
| 0.0161 µg/mL | B5 |
| 0.0107 µg/mL | B6 |

Each molecule was assayed against T2, OX40 on a functional cell line … (assay: cell-based or functional assay).

| IL-8 secretion by OX40 overexpressing functional cell line, EC50 | IL-8 secretion by OX40 overexpressing functional cell line, best-fit value Bottom | IL-8 secretion by OX40 overexpressing functional cell line, best-fit value LogEC50 | IL-8 secretion by OX40 overexpressing functional cell line, best-fit value Top | Molecule |
| --- | --- | --- | --- | --- |
| 1.62 nM | 3950 | 0.209 | 24200 | B2 |
| 1.03 nM | 3060 | 0.0123 | 19000 | B3 |
| 3 nM | 3590 | 0.476 | 24600 | B4 |
| 2.14 nM | 4420 | 0.329 | 19500 | B5 |
| 1.55 nM | 3350 | 0.191 | 21000 | B6 |

Each molecule was assayed against OX40 on a functional cell line overexpressing OX40 (UniProt P43489) (assay: cell-based or functional assay).

| IL-8 secretion by OX40 overexpressing functional cell line, EC50 | IL-8 secretion by OX40 overexpressing functional cell line, best-fit value Bottom | IL-8 secretion by OX40 overexpressing functional cell line, best-fit value LogEC50 | IL-8 secretion by OX40 overexpressing functional cell line, best-fit value Top | Molecule |
| --- | --- | --- | --- | --- |
| 2.54 nM | 4130 | 0.404 | 19900 | OX40 ligand (from UniProt P23510 51-183) |

Molecular target: T3, Recombinant monkey OX-40 protein
Assay: ELISA, plate coated with recombinant monkey OX-40 protein, antibody titrated

| EC50 | Molecule |
| --- | --- |
| 0.0618 µg/mL | B1 |
| 0.0353 µg/mL | B2 |
| 0.0391 µg/mL | B3 |
| 0.0323 µg/mL | B4 |
| 0.0376 µg/mL | B5 |
| 0.0303 µg/mL | B6 |

What follows are molecules tested against T1, Recombinant human OX40-His protein (assay: kinetic ranking (RU, 1:1 binding model), antibody product as ligand, OX40-His as analyte).

| Kd | koff | kon | Molecule |
| --- | --- | --- | --- |
| 11.2 nM | 0.00487 s⁻¹ | 434000 M⁻¹ s⁻¹ | B7 |

Source: patent publication US20220119540A1 (NANJING GENSCRIPT BIOTECH, published 2022)
